Measurements taken from patent publication US20240189408A1, “COMPOSITIONS AND METHODS FOR REDUCING METHANE EMISSIONS IN RUMINANT POPULATIONS” (Arkea Bio Corp., priority 2022, published 2024).
Values joined by “and” are separate entries in the source; they are usually repeats but may differ in a detail not shown here. Equal values may be shown once.

Tests used:
total IgG = experiment: Total sera IgG by radial immunodiffusion after IM or SQ vaccination with OVA mRNA LNPs; assay type: in vivo, dairy cows; details: for Serum IgG Concentration: one line per animal replicate
Method: (§1) Bovine nucleic acid vaccination protocols (SQ and IM) were assessed in vivo in the dairy cows through the quantification of the adaptive immune response following inoculation with ovalbumin (OVA). Immune response was assessed by quantifying total IgG and OVA-specific IgG over a 28-day period after vaccination. Both SQ and IM vaccination provided a robust immune response, with IM vaccination providing a higher total immune response than SQ vaccination.
(§2) Dairy cows were dried off for a period of eight days prior to vaccination. Each vaccine formulation was administered either by IM or SQ injection to three animals. In total, 15 animals were vaccinated with LNPs containing mRNA and 6 animals were vaccinated with empty LNPs. Intramuscular injections were delivered into the cow's right neck muscle by veterinary-trained staff using an 18-gauge 1-1.5″ needle. Subcutaneous injections were delivered into the cow's right shoulder by veterinary-trained staff using an 18-gauge 0.5-0.75″ needle. Total blood samples (˜20 mL) were collected by veterinary-trained staff. Samples were collected into 10 mL vacutainer tubes (2×10 mL) from the coccygeal vein (tail vein) by needle puncture. Harvested blood samples were then processed via ultracentrifugation for serum collection. Isolated serum samples were aliquoted, labeled and stored in cryogenic tubes at −20° C. until use.
Sera samples were thawed on ice and total IgG was quantified using Triple J Farms' Ig Radial Immunodiffusion (RID) kits (Cat No. 728411) following the manufacturers recommended protocol.

ovalbumin (OVA) = experiment: OVA-specific IgG ELISA of sera after IM or SQ vaccination; assay type: in vivo, dairy cows; details: one line per animal replicate
Method: as §1, §2
Sera samples were thawed on ice and total IgG was quantified using NovateinBio's Bovine OVA sIgG Antibody ELISA Kit (Cat No. BG-BVN11731) following the manufacturer's recommended protocol. Each of the animals vaccinated with a construct show a demonstrable OVA-specific IgG response over the 28-day test period.

[1] = LNP encapsulation efficiency, RiboGreen assay; assay type: physicochemical; details: mRNA LNPs, Example 6
Method: (§3) To prepare lipid nanoparticles (LNPs), the mRNA stocks were thawed on ice. Nucleic acid concentrations were validated by absorbance at 260 nm using a NanoDrop. The mRNAs were then diluted to a final concentration of 0.35 mg/mL mRNA in Precision Nanosystem's dilution buffer. 10 mL of the dilute mRNAs were loaded into separate Luer lock syringes and all bubbles were removed by gentle tapping. A NanoAssemblr Ignite NxGen Cartridge was loaded into the cartridge slot of the Ignite instrument (FIG. 8A, 801) and one mRNA syringe was attached to the aqueous inlet of the cartridge. 3.3 mL of Genvoy-ILM reagent was loaded into a separate Luer lock syringes and all bubbles were removed by gentle tapping. The Genvoy-ILM syringe was then attached to the organic inlet of the cartridge. LNPs were then generated and collected into a 15 mL conical tube. The process was repeated for the remaining two mRNAs and for a buffer only LNP control (empty). Immediately after LNPs were generated, the samples were loaded into 10K dialysis cartridges, submerged into 1×DPBS (Ca^2+ and Mg^2+-free) to reduce the ethanol concentration to <0.5%. After dialysis the LNPs were recovered from the dialysis cartridges and sterile filtered at 0.2 um. Size and polydispersity (FIG. 8A, 802) were measured using a Malvern Panalytical DLS by diluting 40 uL of LNPs into 360 uL of 1×DPBS. […] Encapsulation efficiency was measured using a RiboGreen assay following Precision Nanosystems recommended protocol using a BioTek Synergy H1 Plate Reader. The resultant encapsulation efficiencies are shown in Table 14, with an average of ˜85%.
(§4) To prepare lipid nanoparticles (LNPs), the mRNA stocks were thawed on ice. Nucleic acid concentrations were validated by absorbance at 260 nm using a NanoDrop. The mRNAs were then diluted to a final concentration of 0.35 mg/mL mRNA in Precision Nanosystem's dilution buffer. 10 mL of the dilute mRNAs were loaded into separate Luer lock syringes and all bubbles were removed by gentle tapping. A NanoAssemblr Ignite NxGen Cartridge was loaded into the cartridge slot of the Ignite instrument and one mRNA syringe was attached to the aqueous inlet of the cartridge. 3.3 mL of Genvoy-ILM reagent was loaded into a separate Luer lock syringes and all bubbles were removed by gentle tapping. The Genvoy-LM syringe was then attached to the organic inlet of the cartridge. LNPs were then generated and collected into a 15 mL conical tube. The process was repeated for the remaining mRNAs and for a buffer only LNP control (empty). Immediately after LNPs were generated, the samples were loaded into 10K dialysis cartridges, submerged into Ix DPBS (Ca^2+ and Mg^2+-free) to reduce the ethanol concentration to <0.5%. After dialysis the LNPs were recovered from the dialysis cartridges and sterile filtered at 0.2 um. Size and polydispersity (FIG. 12 and FIG. 13) were measured using a Malvern Panalytical DLS by diluting 40 uL of LNPs into 360 uL of 1×DPBS. […] Encapsulation efficiency was measured using a RiboGreen assay following Precision Nanosystems recommended protocol using a BioTek Synergy H1 Plate Reader. The resultant encapsulation efficiencies are shown in Table 18, with an average of ˜60%.
(§5) To prepare lipid nanoparticles (LNPs), the mRNA stocks are thawed on ice. Nucleic acid concentrations are validated by absorbance at 260 nm using a NanoDrop. The mRNAs are then diluted to a final concentration of 0.35 mg/mL mRNA in Precision Nanosystem's dilution buffer. 10 mL of the dilute mRNAs are loaded into separate Luer lock syringes and all bubbles are removed by gentle tapping. A NanoAssemblr Ignite NxGen Cartridge is loaded into the cartridge slot of the Ignite instrument and one mRNA syringe is attached to the aqueous inlet of the cartridge. 3.3 mL of Genvoy-ILM reagent is loaded into a separate Luer lock syringes and all bubbles are removed by gentle tapping. The Genvoy-ILM syringe is then attached to the organic inlet of the cartridge. […]

[2] = LNP size and polydispersity by DLS (Malvern Panalytical); assay type: physicochemical; details: mRNA LNPs, Example 6
Method: as §3, §4, §5

B1: ARK011: mRNA: SP + Ova + TM/C, membrane-anchored OVA; SEQ ID NO: 16673 (nucleic acid)
chain: ATGTTCGTGTTCCTCGTGCTCCTGCCCCTCGTCTCCAGCCAGTGCGTGGGGTCCATAGGGGCTGCTTCTATGGAGTTCTGTTTTGATGTTTTCAAGGAACTGAAGGTTCACCATGCTAACGAGAACATCTTTTACTGTCCAATAGCCATCATGAGTGCGCTTGCTATGGTTTATTTGGGTGCAAAAGATTCTACTCGCACTCAGATTAATAAGGTCGTTAGATTCGACAAGCTTCCAGGGTTTGGAGACAGTATTGAGGCCCAATGTGGAACGTCAGTCAACGTCCATTCTTCTCTGCGGGACATTCTCAACCAAATAACGAAGCCAAACGACGTGTATTCCTTCTCACTCGCGTCACGGCTGTATGCTGAAGAAAGGTATCCTATCTTGCCAGAATATCTCCAGTGCGTCAAGGAGTTGTATCGAGGCGGACTGGAACCGATCAACTTTCAGACTGCAGCCGACCAGGCCCGCGAACTGATCAACAGCTGGGTCGAGTCTCAGACCAATGGGATCATACGCAATGTGTTGCAACCGAGTAGTGTCGACTCTCAGACGGCTATGGTCTTGGTGAACGCTATAGTCTTCAAAGGTCTGTGGGAGAAGACCTTCAAGGATGAAGACACACAAGCGATGCCATTCAGAGTCACCGAACAAGAAAGCAAACCCGTCCAAATGATGTACCAAATTGGGCTTTTTCGGGTGGCCTCTATGGCCTCTGAGAAAATGAAAATATTGGAACTGCCCTTCGCCAGCGGCACAATGAGTATGTTGGTCCTTCTTCCAGATGAAGTCTCAGGTCTCGAACAGCTTGAGTCTATCATTAACTTTGAGAAACTCACTGAATGGACTTCTTCCAATGTGATGGAAGAACGAAAAATCAAAGTCTACCTGCCCCGAATGAAGATGGAAGAGAAATATAATTTGACATCAGTTCTGATGGCCATGGGAATCACAGACGTGTTTTCATCCTCTGCGAATCTGTCTGGCATATCTTCCGCAGAATCTCTCAAGATCAGTCAAGCCGTCCACGCGGCCCATGCTGAGATAAATGAGGCGGGCAGAGAGGTGGTGGGGTCCGCCGAAGCTGGAGTCGACGCAGCTTCTGTCAGTGAAGAATTTAGGGCCGATCATCCTTTCCTGTTCTGCATAAAGCACATAGCTACGAACGCTGTGCTTTTCTTTGGCAGATGCGTTTCTCCACCCTGGTACATCTGGCTGGGCTTCATCGCAGGACTGATCGCCATCGTCATGGTCACCATAATGCTCTGTTGCATGACCTCCTGCTGTAGCTGCCTGAAAGGCTGTTGCAGCTGCGGGAGCTGCTGCAAATTCGACGAAGACGATAGCGAACCTGTGCTCAAAGGGGTGAAGTTGCATTACACATAGTGA
modifications: listed as DNA
In the case of B1, the “Serum IgG Concentration” value (total IgG; IM injection, Day 0, dairy cows, dose 348-468 ug) is reported as 5,261 mg/dL and 5,203 mg/dL and 6,150 mg/dL, the “Serum IgG Concentration” value (total IgG; IM injection, Day 14, dairy cows, dose 348-468 ug) is reported as 4,902 mg/dL and 5,664 mg/dL and 6,716 mg/dL and the “Serum IgG Concentration” value (total IgG; IM injection, Day 28, dairy cows, dose 348-468 ug) is reported as 3,702 mg/dL and 4,145 mg/dL and 3,794 mg/dL. For the same molecule, the “Serum IgG Concentration” value (total IgG; SQ injection, Day 0, dairy cows, dose 353-468 ug) was 4,956 mg/dL and 5,599 mg/dL and 4,964 mg/dL, the “Serum IgG Concentration” value (total IgG; SQ injection, Day 14, dairy cows, dose 353-468 ug) was 4,815 mg/dL and 4,777 mg/dL and 6,139 mg/dL and the “Serum IgG Concentration” value (total IgG; SQ injection, Day 21, dairy cows, dose 353-468 ug) was 5,722 mg/dL and 4,034 mg/dL and 7,379 mg/dL. For the same molecule, the “Serum IgG Concentration” value (total IgG; SQ injection, Day 28, dairy cows, dose 353-468 ug) was 4,877 mg/dL and 4,344 mg/dL and 3,730 mg/dL, the “total sera IgG immune response, treated groups normalized against the empty groups” value (total IgG; dairy cows, 3 animals per construct, 28-day test period, FIG. 9) was “robust and prolonged immune response across all 3 animals” and the “OVA-specific IgG, Absorbance (OD450)” value (ovalbumin (OVA); IM injection, Day 0, dairy cows) was 0.327 OD450 and 0.591 OD450 and 1.937 OD450. For the same molecule, the “OVA-specific IgG, Absorbance (OD450)” value (ovalbumin (OVA); IM injection, Day 14, dairy cows) was 0.64 OD450 and 0.616 OD450 and 1.817 OD450, the “OVA-specific IgG, Absorbance (OD450)” value (ovalbumin (OVA); IM injection, Day 21, dairy cows) was 0.757 OD450 and 0.513 OD450 and 2.024 OD450 and the “OVA-specific IgG, Absorbance (OD450)” value (ovalbumin (OVA); IM injection, Day 28, dairy cows) was 0.626 OD450 and 0.603 OD450 and 1.663 OD450. The “OVA-specific IgG, Absorbance (OD450)” value (ovalbumin (OVA); SQ injection, Day 0, dairy cows) was 1.004 OD450 and 0.952 OD450 and 0.756 OD450, the “OVA-specific IgG, Absorbance (OD450)” value (ovalbumin (OVA); SQ injection, Day 14, dairy cows) was 1.16 OD450 and 0.955 OD450 and 1.085 OD450 and the “OVA-specific IgG, Absorbance (OD450)” value (ovalbumin (OVA); SQ injection, Day 21, dairy cows) was 1.036 OD450 and 0.7 OD450 and 1.063 OD450. For the same molecule, the “OVA-specific IgG, Absorbance (OD450)” value (ovalbumin (OVA); SQ injection, Day 28, dairy cows) was 0.916 OD450 and 0.68 OD450 and 0.704 OD450, the Encapsulation efficiency [1] was 83% and the PDI [2] was 0.1665. For the same molecule, the “Z-avg.” value [2] was 97.79 nm·days.
